Earlier results on 1 substance are cited in article PMC6669380.

A word on the Kd: it is the constant that tells how readily two partners part at equilibrium.

This data set concerns the target SLP-76 RxxK motif (Homo sapiens) (UniProt Q13094).

Consider “Gads C-terminal SH3 (from UniProt O75791)”, for which the equilibrium dissociation constant (Kd) is 0.0145 µM.
